The data set has as its system C[C@@H](N)C(=O)O. Description: purified protein, by the assay type. The note with it: other: air saturation, 25°C, pH 8.5, 0.2 mM FAD.

Sequence of R120E hDAAO variant (Homo sapiens; R120E) (chain, as listed by the source R120E R120E): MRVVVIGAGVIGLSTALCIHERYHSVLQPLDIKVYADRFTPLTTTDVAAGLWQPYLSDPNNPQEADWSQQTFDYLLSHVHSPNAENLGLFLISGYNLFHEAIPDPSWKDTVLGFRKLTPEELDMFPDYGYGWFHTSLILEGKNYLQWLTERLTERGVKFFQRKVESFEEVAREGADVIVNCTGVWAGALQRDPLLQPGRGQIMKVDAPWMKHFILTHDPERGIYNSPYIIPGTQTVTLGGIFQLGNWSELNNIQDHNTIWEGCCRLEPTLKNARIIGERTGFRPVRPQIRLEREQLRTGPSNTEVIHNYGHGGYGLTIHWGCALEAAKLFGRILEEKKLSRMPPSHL
Sequence of R120L hDAAO variant (Homo sapiens; R120L) (chain, as listed by the source R120L R120L): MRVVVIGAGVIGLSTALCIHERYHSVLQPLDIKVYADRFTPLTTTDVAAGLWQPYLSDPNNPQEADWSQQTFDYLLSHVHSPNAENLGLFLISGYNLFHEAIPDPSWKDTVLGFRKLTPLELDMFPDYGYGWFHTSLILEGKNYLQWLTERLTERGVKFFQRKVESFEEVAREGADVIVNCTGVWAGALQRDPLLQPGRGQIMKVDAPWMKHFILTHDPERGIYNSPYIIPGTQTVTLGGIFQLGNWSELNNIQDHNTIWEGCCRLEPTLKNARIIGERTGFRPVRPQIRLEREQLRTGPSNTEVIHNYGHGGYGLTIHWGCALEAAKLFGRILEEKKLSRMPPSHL

Broadly, the Km is the concentration of substrate that gives half-maximal velocity. Usually kcat stands for the number of substrate molecules converted per active site and unit of time at saturation. The kcat/Km is the second-order rate constant that governs catalysis at low substrate concentration. Consider “R120L hDAAO variant (Homo sapiens; R120L)”, for which the Km came to 2000 ± 300 µM, the kcat was found to be 17.3 s⁻¹ and the kcat/Km is 8500 M⁻¹ s⁻¹.
Consider “R120E hDAAO variant (Homo sapiens; R120E)”, for which the Km is 1400 ± 100 µM, the kcat came to 12.6 s⁻¹ and the kcat/Km turned out to be 8900 M⁻¹ s⁻¹.
